Drawing on patent US20260108605A1, this text covers Kd, koff and kon for 13 substances.

The target in this experiment is antibody anti-FITC IgG1 (prepared in-house). The experiment can be described thus: SPR, Biacore 8K; anti-FITC IgG1 captured on Protein A chip, CD16a protein as analyte.
Broadly, the Kd is the concentration at which binding is half-saturated. A higher Kd goes with weaker binding. Usually koff stands for the rate constant with which the complex falls apart. A higher koff goes with a short-lived complex. A word on the kon: it is a measure of how fast the partners come together. “1600E, recombinant fragment of the extracellular domain of CD16a protein with natural mutation F176V (from UniProt P08637 17-208) (receptor)”: the Kd came out at 484 nM, the koff is 0.119 s⁻¹ and the kon turned out to be 245000 M⁻¹ s⁻¹.

As for “1600WE, recombinant fragment of the extracellular domain of wild-type CD16a protein (from UniProt P08637 17-208) (receptor)”, the Kd amounted to 2600 nM, the off-rate (koff) stood at 0.258 s⁻¹ and the kon turned out to be 99500 M⁻¹ s⁻¹.

In turn, “1602E, recombinant fragment of the extracellular domain of CD16a protein with point mutation Q192P (from UniProt P08637 17-208) (receptor)” displayed a dissociation constant (Kd) of 557 nM, an off-rate constant (koff) of 0.119 s⁻¹ and an association rate constant (kon) of 214000 M⁻¹ s⁻¹.

The substance “1604E, recombinant fragment of the extracellular domain of CD16a protein with point mutation L194P (from UniProt P08637 17-208) (receptor)” had a Kd of 477 nM, a dissociation rate constant (koff) of 0.113 s⁻¹ and a kon of 236000 M⁻¹ s⁻¹.

“1615E, recombinant fragment of the extracellular domain of CD16a protein with point mutation A195V (from UniProt P08637 17-208) (receptor)” registered a Kd of 576 nM, a koff of 0.113 s⁻¹ and an association rate constant (kon) of 196000 M⁻¹ s⁻¹.

The substance “1623E, recombinant fragment of the extracellular domain of CD16a protein with point mutation V196G (from UniProt P08637 17-208) (receptor)” showed an equilibrium dissociation constant (Kd) of 418 nM, a koff of 0.105 s⁻¹ and a kon of 251000 M⁻¹ s⁻¹.

Regarding “1625E, recombinant fragment of the extracellular domain of CD16a protein with point mutation V196Q (from UniProt P08637 17-208) (receptor)”, the Kd is 415 nM, the koff amounted to 0.112 s⁻¹ and the kon turned out to be 270000 M⁻¹ s⁻¹.

As to “1626E, recombinant fragment of the extracellular domain of CD16a protein with point mutation V196M (from UniProt P08637 17-208) (receptor)”, the dissociation constant (Kd) was found to be 476 nM, the koff worked out at 0.114 s⁻¹ and the association rate constant (kon) was 240000 M⁻¹ s⁻¹.

Substance “1627E, recombinant fragment of the extracellular domain of CD16a protein with point mutation V196H (from UniProt P08637 17-208) (receptor)” showed a Kd of 402 nM, a koff of 0.107 s⁻¹ and a kon of 267000 M⁻¹ s⁻¹.

“1630E, recombinant fragment of the extracellular domain of CD16a protein with point mutation S197P (from UniProt P08637 17-208) (receptor)” registered a Kd of 448 nM, a koff of 0.117 s⁻¹ and a kon of 260000 M⁻¹ s⁻¹.

Turning to “1632E, recombinant fragment of the extracellular domain of CD16a protein with point mutation Q192N (from UniProt P08637 17-208) (receptor)”, the dissociation constant (Kd) worked out at 479 nM, the off-rate (koff) was 0.117 s⁻¹ and the kon was 244000 M⁻¹ s⁻¹.

In turn, “1635E, recombinant fragment of the extracellular domain of CD16a protein with point mutation L194I (from UniProt P08637 17-208) (receptor)” yielded a Kd of 506 nM, an off-rate (koff) of 0.121 s⁻¹ and an association rate constant (kon) of 240000 M⁻¹ s⁻¹.

“1637E, recombinant fragment of the extracellular domain of CD16a protein with point mutation V196S (from UniProt P08637 17-208) (receptor)”: the Kd was determined as 391 nM, the koff was 0.101 s⁻¹ and the kon was 257000 M⁻¹ s⁻¹.
